The text below walks through data of article PMC2655719 (PLoS ONE, 2009).

Holding throughout (details): both partners purified
For assay [1], the target named is T1, H-Ras (recombinant, guanine nucleotide-loaded) (UniProt P01112 1-189).
T1 construct: H-Ras expressed from pPROEXHTb(H-Ras); Treated with calf intestinal phosphatase, EDTA, TEV protease and GPPNHP before gel filtration; used loaded with GPPNHP or with GDP (two assays); also called H-Ras(GPPNHP); H-Ras(GDP); source: E. coli BL21(DE3), purified (Ni-NTA, gel filtration)
T1 sequence (P01112 whole entry): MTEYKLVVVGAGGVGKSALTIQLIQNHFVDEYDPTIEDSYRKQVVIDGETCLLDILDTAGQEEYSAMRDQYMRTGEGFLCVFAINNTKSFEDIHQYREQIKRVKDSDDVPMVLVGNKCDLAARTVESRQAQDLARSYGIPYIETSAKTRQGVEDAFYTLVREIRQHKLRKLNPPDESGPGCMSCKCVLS
The assay can be described thus: ITC; 300 µM RGS14(RBD1.RBD2) titrated into 20 µM H-Ras loaded with GPPNHP; 20°C; 20 mM HEPES pH 7.5, 150 mM NaCl, 1 mM MgCl2, 0.5 mM TCEP; single binding site model. (In general: Isothermal titration calorimetry measures the heat released or taken up as one component is titrated into another.)

The target of assay [2] is T1, H-Ras (recombinant, guanine …). Described as above. The source holds these as a separate data set.
Assay [3] has the same target. The assay can be described thus: ITC; 300 µM RGS14(RBD1.RBD2) titrated into 20 µM H-Ras loaded with GDP; 20°C; 20 mM HEPES pH 7.5, 150 mM NaCl, 1 mM MgCl2, 0.5 mM TCEP; single binding site model.
Assay [4] shares this target. The assay is described as above. The source holds these as a separate data set.

The term Kd denotes the concentration at which binding is half-saturated. Usually stoichiometry N stands for a count of units in the complex or per binding partner.

B1: RGS14(RBD1.RBD2) (domain or fragment)
chain: PGKYCCVYLPDGTASLALARPGLTIRDMLAGICEKRGLSLPDIKVYLVGNEQALVLDQDCTVLADQEVRLENRITFELELTALERVVRISAKPTKRLQEALQPILEKHGLSPLEVVLHRPGEKQPLDLGKLVSSVAAQRLVLDTLPG
Regarding B1, in assay [1], the dissociation constant Kd was around 10 µM. For the same molecule, in assay [2], the Ka was 101000 M⁻¹, the dH is -1.81 ± 0.04 kcal/M and the “stoichiometry N” value was found to be 1.03 ± 0.02. In assay [3], the Ka turned out to be 23500 M⁻¹, the dH was -7.1 ± 0.5 kcal/M and the “stoichiometry N” value worked out at 1.05 ± 0.06. In assay [4], the Kd was above 200 µM.
